Test results published in patent US20200292536A1.

Key:
[1] = target: Bovine serum albumin (BSA; Ultra Pure) (bovine) (UniProt P02769); assay: chromogenic IHC, aggregate of 10 assays; cores without peptide
[2] = target: BCL2 peptide Ac-…-amide (amino acids 41-54 of human BCL2 with linkers) (human); assay: chromogenic IHC, aggregate of 10 assays; BCL2 peptide 2.5E-05 M as formulated
[3] = target: BCL2 peptide variant with N-terminal arginine (R-C) (human); assay: chromogenic IHC with clone 124 on peptide/BSA gel TMA
BCL2 peptide variant with N-terminal arginine (R-C) (human), sequence (peptide, as listed by the source mutant): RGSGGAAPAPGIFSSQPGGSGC

[4] = target: BCL2 peptide Ac-…-amide (amino acids 41-54 of human BCL2 with linkers) (human); assay: chromogenic IHC, aggregate of 10 assays; BCL2 peptide 2.5E-07 M as formulated
[5] = target: Bovine serum albumin (BSA; Ultra Pure) (bovine) (UniProt P02769); assay: chromogenic IHC on TMA, cores without peptide
[6] = target: BCL2 peptide Ac-…-amide (amino acids 41-54 of human BCL2 with linkers) (human); assay: chromogenic IHC, aggregate of 10 assays; BCL2 peptide 2.5E-04 M as formulated
[7] = target: BCL2 peptide Ac-…-amide (amino acids 41-54 of human BCL2 with linkers) (human); assay: chromogenic IHC, aggregate of 10 assays; BCL2 peptide 2.5E-08 M as formulated
[8] = target: Bovine serum albumin (BSA; Ultra Pure) (bovine) (UniProt P02769); assay: chromogenic IHC, aggregate of 10 assays; BSA only cores
[9] = target: BCL2 peptide Ac-…-amide (amino acids 41-54 of human BCL2 with linkers) (human); assay: IHC with clone 124 on donor block sections, alternative fixatives
[10] = target: BCL2 peptide Ac-…-amide (amino acids 41-54 of human BCL2 with linkers) (human); assay: chromogenic IHC, aggregate of 10 assays; BCL2 peptide 2.5E-06 M as formulated
[11] = target: BCL2 peptide Ac-…-amide (amino acids 41-54 of human BCL2 with linkers) (human); assay: chromogenic IHC, aggregate of 10 assays
[12] = target: Bovine serum albumin (BSA; Ultra Pure) (bovine) (UniProt P02769); assay: immunofluorescent IHC on TMA, cores without peptide
[13] = target: BCL2 peptide Ac-…-amide (amino acids 41-54 of human BCL2 with linkers) (human); assay: chromogenic IHC on BCL2 peptide TMA with or without prior antigen retrieval
[14] = target: BCL2 peptide Ac-…-amide (amino acids 41-54 of human BCL2 with linkers) (human); assay: chromogenic IHC on peptide/BSA gel TMA, antigen concentration at half-maximum signal
[15] = target: MYC peptide Ac-…-amide (amino acids 9-24) (human); assay: IHC with clone Y69 on donor block sections, alternative fixatives
MYC peptide Ac-…-amide (amino acids 9-24) (human), sequence (peptide, as listed by the source): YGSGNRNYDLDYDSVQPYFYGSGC

[16] = target: MYC peptide Ac-…-amide (amino acids 9-24) (human); assay: chromogenic IHC on BCL2/MYC peptide TMA

UniProt P02769, sequence (P02769 25-607 limits assumed): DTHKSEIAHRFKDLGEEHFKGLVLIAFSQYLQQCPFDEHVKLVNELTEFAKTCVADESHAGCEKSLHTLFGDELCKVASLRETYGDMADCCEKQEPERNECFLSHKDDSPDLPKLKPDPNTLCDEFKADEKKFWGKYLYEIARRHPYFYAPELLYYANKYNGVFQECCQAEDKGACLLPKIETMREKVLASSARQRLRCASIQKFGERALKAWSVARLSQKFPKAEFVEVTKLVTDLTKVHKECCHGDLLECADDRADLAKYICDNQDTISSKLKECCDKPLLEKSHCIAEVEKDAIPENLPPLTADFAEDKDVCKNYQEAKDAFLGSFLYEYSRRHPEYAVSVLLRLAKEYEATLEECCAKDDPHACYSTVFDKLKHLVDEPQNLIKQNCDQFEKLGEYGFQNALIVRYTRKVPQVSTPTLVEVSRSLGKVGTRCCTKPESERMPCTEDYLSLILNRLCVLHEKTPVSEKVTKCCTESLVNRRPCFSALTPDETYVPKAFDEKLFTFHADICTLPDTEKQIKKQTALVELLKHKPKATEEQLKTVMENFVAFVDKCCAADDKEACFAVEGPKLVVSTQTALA
BCL2 peptide Ac-…-amide (amino acids 41-54 of human BCL2 with linkers) (human), sequence (peptide, as listed by the source): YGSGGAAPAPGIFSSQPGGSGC

Substance | limit of blank (LOB) [1] | Intensity Mean (pixel intensity units) [2] | ACHM (antigen concentration at half-maximum signal) [3] | ACHM, fold lower than the original Y-C variant [3] | Intensity Mean (pixel intensity units) [4] | non-specific signal in cores containing no added peptide, % of the maximum detectable signal [5] | Intensity Mean (pixel intensity units) [6] | Intensity Mean (pixel intensity units) [7] | Intensity Mean (pixel intensity units) [8] | fold signal, formaldehyde fixation against zinc fixation during heating [9] | Intensity Mean (pixel intensity units) [10] | limit of detection (LOD), peptide concentration [11] | limit of detection (LOD), signal [11] | non-specific signal in cores containing no added peptide, fold lower than in the chromogenic clone 124 assay [12] | fold signal strength with against without antigen retrieval [13] | ACHM, fold lower than the ACHM for the chromogenic clone 124 assay [14] | ACHM, fold lower than the fluorescent clone 124 assay [14] | fold signal, formaldehyde fixation against zinc fixation during heating [15] | ACHM, fold lower than the BCL2 protocol (clone 124 on BCL2 peptide) [16]
CONFIRM anti-bcl-2 (124) Mouse Monoclonal Primary Antibody | 8 units | 202 | 443 nM | 6 fold | 18 | 2.7% | 212 | 6.1 | 4.8 | 10 fold | 105 | 230 nM | 16 units | 1000 fold | 6 fold | – | – | – | –
rabbit anti-human BCL2 clone EPR17509 (antibody) | – | – | – | – | – | 23% | – | – | – | – | – | – | – | – | – | 8 fold | > 50 fold | – | –
rabbit anti-human MYC clone Y69 (antibody) | – | – | – | – | – | – | – | – | – | – | – | – | – | – | – | – | – | 10 fold | 4 fold
